Measurements as given in article PMC9682848.

Molecular target: lamprey serum spherical lectin (LSSL), native, from lamprey serum (Lampetra japonica (endogenous in lamprey serum))
Assay: cryo-EM structure; native LSSL purified from serum, 2 μg/μL, vitrified; Titan Krios 300 kV; RELION 3.1

Substance: lamprey serum spherical lectin (LSSL), native, from lamprey serum (natural protein)
- stoichiometry N: 3
